Source: patent US20250368752A1 (AMPSOURCE BIOPHARMA SHANGHAI, published 2025)

T1: human TFPI protein (human, UniProt P10646 29-282, limits assumed)
T1 construct: Soluble human TFPI, coated on ELISA plates (6.1) and used in solution in the FXa and TF/FVIIa/FX assays (6.2, 6.3)
T1 sequence (looked up): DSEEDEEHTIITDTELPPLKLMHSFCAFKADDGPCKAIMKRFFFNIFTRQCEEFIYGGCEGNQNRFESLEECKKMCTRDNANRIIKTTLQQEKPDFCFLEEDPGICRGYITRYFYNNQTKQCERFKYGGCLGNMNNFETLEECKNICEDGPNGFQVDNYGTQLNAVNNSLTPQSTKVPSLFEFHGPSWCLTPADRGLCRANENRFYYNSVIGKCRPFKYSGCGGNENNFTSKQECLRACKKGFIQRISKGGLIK

T2: human TFPI with a His tag (human, UniProt P10646 29-282, limits assumed)
T2 construct: Coupled to Ni-NTA sensors at 10 ug/mL for BLI; not shown: His tag
T2 sequence (looked up): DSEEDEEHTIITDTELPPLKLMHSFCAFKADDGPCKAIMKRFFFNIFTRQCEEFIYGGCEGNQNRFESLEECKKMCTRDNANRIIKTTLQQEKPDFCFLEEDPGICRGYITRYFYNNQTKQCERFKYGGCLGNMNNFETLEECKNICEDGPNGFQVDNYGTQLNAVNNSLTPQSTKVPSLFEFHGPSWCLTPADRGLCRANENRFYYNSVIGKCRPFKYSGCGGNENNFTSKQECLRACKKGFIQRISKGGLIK


How the values were obtained:
[1] = target: TFPI expressed on HUVECs (human) (UniProt P10646); experiment: flow cytometry on HUVEC cells, AF647 goat anti-human IgG detection
[2] = target: TFPI expressed on HUVECs (human) (UniProt P10646); experiment: cell-based or functional assay
[3] = target: T1, human TFPI protein; experiment: ELISA, human TFPI coated at 0.1 ug/mL, HRP goat anti-human IgG detection
Protocol: Human TFPI was coated onto the ELISA plate at a concentration of 0.1 μg/mL, with 100 μL per well, and incubated overnight at 4° C. The coating solution was then discarded, and the wells were blocked with 200 μL of PBS solution containing 1% BSA (PBSB) per well at 37° C. for 1 hour. The plate was washed with PBS solution containing 0.05% Tween-20 (PBST). A series of diluted concentrations of AB8D were added, with 100 μL per well, and incubated for 1 hour at 37° C. The plates were washed with PBST, and then HRP-labeled goat anti-human IgG (H+L) (Jackson Laboratory) was added as the detection antibody, with incubation for 1 hour at 37° C. After washing three times with 0.05% PBST, TMB was added, with 100 μL per well, and the color was developed at room temperature for 5 minutes. The reaction was terminated by adding 0.2 M H₂SO₄, with 50 μL per well. The absorbance values were read at dual wavelengths of 450/620 nm using a microplate reader. Using OD450 nm-OD620 nm as the Y-axis and antibody concentration as the X-axis, the data were analyzed using GraphPad Prism 6 software with a four-parameter logistic curve fitting to calculate the EC₅₀ value.

[4] = target: T2, human TFPI with a His tag; experiment: BLI (ForteBio Octet), His-tagged human TFPI on Ni-NTA sensors, antibody 3.125-100 nM
Protocol: The binding affinity constant of the purified mouse monoclonal antibody against human TFPI (mAb3-71) to human TFPI was determined using biolayer interferometry (BLI) with the ForteBio Octet RED&QK system from PALL Corporation. The concentration gradient for multi-channel parallel quantitative analysis was set to 3.125, 6.25, 12.5, 25, 50, and 100 nM, and human TFPI with a His tag at 10 μg/mL was coupled to Ni-NTA sensors.

Binder	EC50 [1]	neutralization of TFPI on HUVEC cells (FVIIa/FX added, S-2765, OD405 nm) [2]	EC50 [3]	Kd [4]	koff [4]	kon [4]
humanized anti-human TFPI antibody AB8D (antibody, V domains shown, Full-length humanized IgG of about 145 kD, expressed in CHO cells) VH: EVQLVQSGAELKKPGASVKLSCKASGYTFTSYWMHWVRQTPGQGLEWIGEIKPDQGRINYNEKFKTRATLTADKSTSTAYMELSSLRSEDTAVYYCARSSVVDVAMDYWGQGTTVTVSS VL: EIVLTQSPATLSLSPGERATLSCSASSSVSSSYLYWYQQKPGQAPRLWISGTSILASGVPARFSGSGSGTKYTLTISSLEPEDFAVYFCHQWSHYPFTFGQGTKLEIK	0.0286 µg/mL	117 ng/mL	0.00165 µg/mL			
mouse monoclonal antibody against human TFPI, mAb3-71 (antibody, V domains shown, also called hybridoma cell line #3-71) VH: QVQLQQPEAELMKPGASVKLSCKASGYTFTSYWMHWVKQRPGQGLEWIGEIKPDNGRINYNEKFKTKATLAVDKSSSTAYMQLNSLTSGDSAVYYCARSSVVDVAMDYWGQGTSVSVSS VL: QIVLTQSPAIMSASPGEKVTLTCSASSSVSSSYLYWYQQKPGSSPKLWISGTSILASGVPARFSGSGSGTSYSLTISSMEAEDTASYFCHQWSHYPFTFGSGTKLEIK				4.54 pM	1.31e-06 s⁻¹	289000 M⁻¹ s⁻¹
